Source: the supplement of paper PMC12636428

System: Saccharomyces cerevisiae
Assay: transcriptional activation domain activity (GFP:mCherry ratio, weighted mean of sorted bins, harmonized to initial dataset scale) (arbitrary fluorescence ratio units); higher = stronger transcriptional activation
Conditions: beta-estradiol 1 µM; induction time 4 h
How it was run: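 Sorting into 8 bins by GFP:mCherry ratio followed a 4-hour hold at 30 °C after cultures were diluted 1:5 into SC with 1 uM beta-estradiol. The yeast diploids carried a GFP reporter and had barcoded protein tiles, fused to an estradiol-inducible synthetic transcription factor, integrated at URA3. Barcodes were then sequenced, and tiles with under 50 reads were removed. Activation activity is the read-weighted mean of bin median fluorescence, averaged across barcodes and linearly mapped onto the initial dataset scale.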

## FLLTVYHIELLRNKSGDCSFMLRYFMNQGVNNSSLSTCMEHVAEAVVSTFINE
  transcriptional activation domain activity: 30600

## FLMLVCLEVIGRGLTNKVVLMPSGLYCIPNIIHPKGFQLALEIIFLVLFIPCP
  transcriptional activation domain activity: 39600

## FLMVLCLFCIVYLFFSCFPFFAMSYVLLLLFCFYCILFYFSCPFCFVICNSVV
  transcriptional activation domain activity: 54000

## FLNNAPDEDPNLNNQWSICDDFSEGRQVNDAFVGGSNIPHTLKGLQKSLRFMN
  transcriptional activation domain activity: 50800

## FLNRYLGLLGNIPVILEFFGNFTEHMFVFAFCFWLAFTQLVVIALLIIRTYAL
  transcriptional activation domain activity: 65900

## FLPCDPYFLVSFFIQFFLLGFPFCLPLLSFLLLLLSFFHLSLEVFSLLLGDFH
  transcriptional activation domain activity: 59400

## FLQNSSDSVDIRLALLLTPLENTKGVSHVDQLNKPTHTVVVGIVHLCNPKSRA
  transcriptional activation domain activity: 51600

## FLRGLVVLLWSLDSLHLAFIVHGLYYYLIQNYGNYFSLFKPVWSFVGQILVSS
  transcriptional activation domain activity: 57300

## FLRLFCFAFIMLVGILPTQAYVVYADVKLSMPWHAYSWSNMHGPSWHTVNMVP
  transcriptional activation domain activity: 51400

## FLRRVFQNHPEVMFKPGPFYMGDGIIGLGANWICICWTLFVCVLLSFPTILPV
  transcriptional activation domain activity: 66700

## FLSCLLAMEIIQHYMYVVAIKDRKAWIGDSPFELSMIGLWNLVIVWLKLLLPW
  transcriptional activation domain activity: 59900

## FLSCMPFVFLTVVCSTLCMYFAKVFPTNNPVFLPLLLLHTFIHILSVVSFGLL
  transcriptional activation domain activity: 33300

## FLSGWPLVLGKFGFDPKFNSCWYLNQDDRLTLIWLWCTFYFWVVASVIYSLLV
  transcriptional activation domain activity: 62300

## FLSLLVLVCWVPCFVIMEVYLKSLTFNSVPYPPIHCFTPEGSHILYLCWGLIA
  transcriptional activation domain activity: 32200

## FLSTFFIIPLDVMCRKAVLCCNKHFLPFLMVSMGPRFHSPHFSLNTFCHRLFF
  transcriptional activation domain activity: 47300

## FLSYFSGWLTVIAWQCLVASASYVSGTLLQGLLVLNYPTYVFERWQGTLLMYA
  transcriptional activation domain activity: 57900

## FLTAIPAVPFAGGLSFNILLLFHHSLPFAGFLAHGFYRIIFPITLFFLPIFML
  transcriptional activation domain activity: 52900

## FLVAFLLMCLHSPDKSTVAMLILGVFSLLLLLFWAASLSFDGQPSKYGWLLRH
  transcriptional activation domain activity: 50200

## FLVCLLTMEFILHYMYVVAIQGAKAWHGDTPLELSMIGFWNLIVVWLKLLLPW
  transcriptional activation domain activity: 18200

## FLVCSFHHSIFGFFFWLFFDFFSFLHWRLCVLFPFWFRSKSSFPSFFFIVIIS
  transcriptional activation domain activity: 51300

## FLVLRYGALIGHVPLFYNVFADPCKTPHLIHILAFYHYIFVFVLTALTTVLLV
  transcriptional activation domain activity: 49400

## FLVRLFVLPVTLCMLYRCSVSLDLSRLNGSARNEWFNYWNKALLLGMTLFSMR
  transcriptional activation domain activity: 62500

## FLWGGRHGFVGFCIPLILLFFMLLSCISFCISILHFFFVLSFLLNFFCEFFLR
  transcriptional activation domain activity: 36100

## FLWYMLFLPLIIPRLSCSWLRLLCVQSGIFGEPIFFRLWICSIIYVVGHCWVL
  transcriptional activation domain activity: 31200

## FLYLLSRYLGLAVHITNTVFAILVGHYQVIPVHLCRIGLVYQGAVLFVMLGIL
  transcriptional activation domain activity: 46900

## FLYTLHIYDGQEGYHFLFNSFGNGSEWLQWSDGEQWALLYAQNYTMIIWVWYM
  transcriptional activation domain activity: 15000

## FMHLSRPEKLLVLKVFADLVDYARKSIDSCLSSPTVNWSFNNLLWNYCSMLLQ
  transcriptional activation domain activity: 67000

## FMHYYRRDRRHLKFLVLLVLFLSTCHFGLYVLTIFRVFVTMHSVVIPSHQVPW
  transcriptional activation domain activity: 63000

## FMNTNEINNNNNNNNNNKNNINNINNNNSNNFSATSFNLGTLDEFVNNGDLED
  transcriptional activation domain activity: 11800

## FMSDVGILRWSKLGMPIQSLYQAIWLTFWCSFPFIRDWSWTAQVFFTLHLLSI
  transcriptional activation domain activity: 43100

## FMVLFFITLFSFLVLIPFPWSFVSRYVYSSMFMFCIFFSAFLRFHLLLLSFCR
  transcriptional activation domain activity: 54900

## FNEFYPSGWPPSYFIVILRMLFLVCGLFFLWSFFFVVFFFCGLLSLLFFILVV
  transcriptional activation domain activity: 28500

## FNIVAFGIIILDFWGMIGIWTQKFGFHHVWEVWLYQVYYGLFVCPWYSYSQIM
  transcriptional activation domain activity: 80200

## FNLNEILPLPASDFKLNTVTNLNEIDFTNIFTKSPHPHSGSTHPRQVFDQLDD
  transcriptional activation domain activity: 51600
